From paper PMC5427846 (Scientific Reports, 2017)

Target: T1, SecY without pBpa insertion (E. coli, UniProt P0AGA2 1-443)
T1 sequence (looked up): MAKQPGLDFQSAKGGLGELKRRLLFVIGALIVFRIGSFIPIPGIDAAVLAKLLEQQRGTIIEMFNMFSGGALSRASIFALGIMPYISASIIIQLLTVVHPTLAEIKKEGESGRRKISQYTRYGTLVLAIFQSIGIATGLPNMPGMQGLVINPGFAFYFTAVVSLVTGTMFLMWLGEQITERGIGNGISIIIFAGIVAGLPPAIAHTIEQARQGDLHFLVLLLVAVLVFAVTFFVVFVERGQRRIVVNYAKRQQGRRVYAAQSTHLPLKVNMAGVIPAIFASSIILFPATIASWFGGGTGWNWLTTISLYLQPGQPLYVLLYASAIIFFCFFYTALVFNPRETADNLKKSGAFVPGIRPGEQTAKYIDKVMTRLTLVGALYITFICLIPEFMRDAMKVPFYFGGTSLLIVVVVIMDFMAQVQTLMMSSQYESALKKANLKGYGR
Assay: cell-based or functional assay

anion to cation permeability ratio r (PCl/PK) of the FtsQ-RNC-YidC-SecYEG complex: 5.1
B1: YidC (natural protein, UniProt P25714 1-548, looked up)
chain: MDSQRNLLVIALLFVSFMIWQAWEQDKNPQPQAQQTTQTTTTAAGSAADQGVPASGQGKLISVKTDVLDLTINTRGGDVEQALLPAYPKELNSTQPFQLLETSPQFIYQAQSGLTGRDGPDNPANGPRPLYNVEKDAYVLAEGQNELQVPMTYTDAAGNTFTKTFVLKRGDYAVNVNYNVQNAGEKPLEISSFGQLKQSITLPPHLDTGSSNFALHTFRGAAYSTPDEKYEKYKFDTIADNENLNISSKGGWVAMLQQYFATAWIPHNDGTNNFYTANLGNGIAAIGYKSQPVLVQPGQTGAMNSTLWVGPEIQDKMAAVAPHLDLTVDYGWLWFISQPLFKLLKWIHSFVGNWGFSIIIITFIVRGIMYPLTKAQYTSMAKMRMLQPKIQAMRERLGDDKQRISQEMMALYKAEKVNPLGGCFPLLIQMPIFLALYYMLMGSVELRQAPFALWIHDLSAQDPYYILPILMGVTMFFIQKMSPTTVTDPMQQKIMTFMPVIFTVFFLWFPSGLVLYYIVSNLVTIIQQQLIYRGLEKRGLHSREKKKS
